Measured values taken from patent publication US20260258410.

System: T1, ADAR2 R2D E488Q (dsRBD2 + deaminase domain) E488Q (Homo sapiens), P78563-2
T1 sequence: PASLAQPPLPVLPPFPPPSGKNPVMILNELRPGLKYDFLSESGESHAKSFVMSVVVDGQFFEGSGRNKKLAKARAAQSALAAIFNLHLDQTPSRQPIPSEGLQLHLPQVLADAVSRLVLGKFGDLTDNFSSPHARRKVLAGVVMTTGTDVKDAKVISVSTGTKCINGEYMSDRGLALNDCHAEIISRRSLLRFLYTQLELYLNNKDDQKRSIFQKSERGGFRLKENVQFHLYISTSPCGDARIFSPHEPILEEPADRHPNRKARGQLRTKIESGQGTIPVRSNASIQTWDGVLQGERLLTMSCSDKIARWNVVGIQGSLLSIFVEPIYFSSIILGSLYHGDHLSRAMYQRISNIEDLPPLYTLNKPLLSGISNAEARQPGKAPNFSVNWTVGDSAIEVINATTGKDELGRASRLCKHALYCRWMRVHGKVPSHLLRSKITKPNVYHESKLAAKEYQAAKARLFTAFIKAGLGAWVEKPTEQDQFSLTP
Assay: EMSA
Conditions: 8-azanebularine at position 13 of SEQ 7; protein 0.25-256 nM

“GCUCGCGAUGCGNGAGGGCUCUGAUAGCUACG / CGUAGCUAUCAGAGCCCCCCGGCAUCGCGAGC [32 bp GLI1 GG RNA with 8-azanebularine]” showed a Kd of 6 nM.
